# Test results reported in US20240400703A1 (Genmab, published 2024).
# “And” between values parts separate entries of the source, which are not always exact repeats. Equal entries are not always repeated.
# T1: recombinant human OX40 fused to a His-tag (Acro Biosystems, cat. no. OX0-H5224) (human, UniProt P43489 29-214)
# T1 construct: bought protein; also called sOX40; soluble OX40; not shown: His-tag
# T1 sequence: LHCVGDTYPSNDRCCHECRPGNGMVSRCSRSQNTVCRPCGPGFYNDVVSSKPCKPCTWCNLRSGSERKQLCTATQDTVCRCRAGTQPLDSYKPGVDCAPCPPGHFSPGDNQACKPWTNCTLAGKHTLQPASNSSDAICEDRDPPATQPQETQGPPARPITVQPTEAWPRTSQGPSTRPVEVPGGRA
# T2: human OX40 expressed on cells (human, UniProt P43489 29-277)
# T2 construct: also called CD134; TNFRSF4
# T2 sequence: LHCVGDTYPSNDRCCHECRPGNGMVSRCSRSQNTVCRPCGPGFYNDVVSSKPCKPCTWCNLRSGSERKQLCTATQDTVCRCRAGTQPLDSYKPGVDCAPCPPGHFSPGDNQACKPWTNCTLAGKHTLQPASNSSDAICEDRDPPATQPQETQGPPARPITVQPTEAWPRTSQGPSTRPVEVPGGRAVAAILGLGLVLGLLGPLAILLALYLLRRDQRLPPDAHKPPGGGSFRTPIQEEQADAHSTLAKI
# T3: His-tagged human recombinant FcγRIIa 167-His (Sino Biological, cat. no. 10374-H08H1) (human, UniProt P12318 34-218)
# T3 construct: also called FcγRIIa[H]
# T3 sequence (looked up): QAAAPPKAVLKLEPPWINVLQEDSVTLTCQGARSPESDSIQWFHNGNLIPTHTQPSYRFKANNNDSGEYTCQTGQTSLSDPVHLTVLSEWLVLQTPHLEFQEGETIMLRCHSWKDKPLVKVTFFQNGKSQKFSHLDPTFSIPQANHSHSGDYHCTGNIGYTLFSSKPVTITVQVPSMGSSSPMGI
# B1: IgG1-CD134-003 (antibody)
# heavy: not shown
# light: AAVLTQTPSPVSAAVGGTVTIKCQSSQIVVNNNFLSWYQQKPGQPPKLLIYDASNLASGVPDRFSGSGSGTQFTLTISGVQSDDAATYYCLGGYDDDAENAFGGGTEVVVQRTVAAPSVFIFPPSDEQLKSGTASVVCLLNNFYPREAKVQWKVDNALQSGNSQESVTEQDSKDSTYSLSSTLTLSKADYEKHKVYACEVTHQGLSSPVTKSFNRGEC
# notes: rabbit-human chimeric IgG1, wild-type Fc; also called parental chimeric antibody
# B2: IgG1-CD134-007 (antibody)
# heavy: not shown
# light: AQVLTQTPSPVSAAVGGTVTISCQSSESVWNNNWLAWYQQKPGQPPNLLIYEASTLASGVSSRFKGSGSGTQFTLTVSEVQSDDAATYYCQGGYYDSSPIWTFGGGTEVVVKRTVAAPSVFIFPPSDEQLKSGTASVVCLLNNFYPREAKVQWKVDNALQSGNSQESVTEQDSKDSTYSLSSTLTLSKADYEKHKVYACEVTHQGLSSPVTKSFNRGEC
# notes: rabbit-human chimeric IgG1
# B3: IgG1-CD134-003-HC6LC2-P329R-E345R (antibody)
# heavy: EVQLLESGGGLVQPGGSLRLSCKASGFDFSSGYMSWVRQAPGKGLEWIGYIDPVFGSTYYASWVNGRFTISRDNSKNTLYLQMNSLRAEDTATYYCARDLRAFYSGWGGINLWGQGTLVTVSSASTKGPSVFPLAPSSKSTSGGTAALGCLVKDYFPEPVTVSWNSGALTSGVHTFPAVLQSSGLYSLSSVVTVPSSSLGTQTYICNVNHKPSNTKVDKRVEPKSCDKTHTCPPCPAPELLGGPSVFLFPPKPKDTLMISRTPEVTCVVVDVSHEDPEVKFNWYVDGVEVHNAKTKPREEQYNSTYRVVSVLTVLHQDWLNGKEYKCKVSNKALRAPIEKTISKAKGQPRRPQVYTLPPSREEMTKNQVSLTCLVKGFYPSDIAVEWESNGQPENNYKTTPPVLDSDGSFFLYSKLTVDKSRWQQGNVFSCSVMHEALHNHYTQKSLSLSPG
# light: AAVLTQSPSSLSASVGDRVTITCQSSQIVVNNNFLSWYQQKPGKAPKLLIYDASNLASGVPDRFSGSGSGTDFTFTISSLQPEDIATYYCLGGYDDDAENAFGGGTKVEIKRTVAAPSVFIFPPSDEQLKSGTASVVCLLNNFYPREAKVQWKVDNALQSGNSQESVTEQDSKDSTYSLSSTLTLSKADYEKHKVYACEVTHQGLSSPVTKSFNRGEC
# notes: humanized; human IgG1 with P329R and E345R (Eu numbering), kappa; also called IgG1-CD134-003-HC6LC2-RR
# B4: IgG1-CD134-012 (antibody)
# heavy: not shown
# light: DIVMTQTPASVEAAVGGTVTIKCQASENIYSSLAWYQQKPGQPPKLLIYRTSTLASGVPSRFKGSGSGTQFTLTISDLESDDAATYYCQSYYHNSGGGYDYGFGGGTEVVAKRTVAAPSVFIFPPSDEQLKSGTASVVCLLNNFYPREAKVQWKVDNALQSGNSQESVTEQDSKDSTYSLSSTLTLSKADYEKHKVYACEVTHQGLSSPVTKSFNRGEC
# notes: rabbit-human chimeric IgG1
# Biological target: T1, recombinant human OX40 fused to a …
# Test: BLI cross-block; first Ab (competitor): IgG1-CD134-007
# Procedure: (§1) Amine Reactive 2nd Generation (AR2G) biosensors (Sartorius, cat. no. 18-5092) were activated for 300 s with a solution of 20 mM EDC (N-(3-Dimethylaminopropyl)-N-ethylcarbodiimide hydrochloride; Sartorius, cat. no. 18-1033) and 10 mM s-NHS (N-hydroxysulfosuccinimide sodium salt; Sartorius, cat. no. 18-1067). […] After a baseline measurement in Sample Diluent (Sartorius, cat. no. 18-1104) for 50 s, the AR2G biosensors containing immobilized antibody were loaded for 300 s with human OX40 fused to a His-tag (100 nM diluted in Sample Diluent; Acro Biosystems, cat. no. OX0-H5224). The association (300 s) of a second antibody (10 μg/mL in Sample Diluent) was determined. Sensors were regenerated by three cycles of exposure to 10 mM Glycine (Sigma-Aldrich, cat. no. 15527) buffer pH 2.5 for 5 s followed by neutralization in Sample Diluent for 5 s.
# (§2) Data were acquired using Data Acquisition Software v12.0 (Sartorius) and analyzed with Data Analysis HT Software v12.0 (Sartorius). Data traces were corrected by subtraction of a reference curve (Sample Diluent instead of second antibody) in order to correct for the dissociation of antigen from the immobilized first antibody. The Y-axis was aligned to the start of the association step and Savitzky-Golay filtering was applied. The corrected association responses of the second antibodies were plotted in a matrix format (Table 5). Responses ≥0.1 nm were considered non-blocking antibody pairs, while responses <0.1 were considered blocking antibody pairs.
row,association response,Binder
1,-0.07 nm,B1
2,0.01 nm,B2
3,-0.04 nm,B3
4,0.82 nm,B4

# Biological target: T1, recombinant human OX40 fused to a …
# Test: BLI cross-block; first Ab (competitor): IgG1-CD134-012
# Procedure: (§3) Experiments were carried out while shaking at 1,000 RPM and at 30° C.
# as §1, §2
row,association response,Binder
1,-0.01 nm,B1
2,0.8 nm,B2
3,-0.02 nm,B3
4,0 nm,B4

# Biological target: T1, recombinant human OX40 fused to a …
# Test: BLI cross-block; first Ab (competitor): IgG1-CD134-SF2
# Procedure: as §1, §2
row,association response,Binder
1,0.21 nm,B1
2,0.22 nm,B2
3,0.22 nm,B3
4,0.14 nm,B4

# Biological target: T1, recombinant human OX40 fused to a …
# Test: BLI cross-block; first Ab (competitor): IgG1-CD134-11D4
# Procedure: as §1, §2
row,association response,Binder
1,0.01 nm,B1
2,0.15 nm,B2
3,0 nm,B3
4,0 nm,B4

# Biological target: T1, recombinant human OX40 fused to a …
# Test: BLI cross-block; first Ab (competitor): IgG1-CD134-IBI101
# Procedure: as §1, §2
row,association response,Binder
1,0.23 nm,B1
2,0 nm,B2
3,0.34 nm,B3
4,0.28 nm,B4

# Biological target: T1, recombinant human OX40 fused to a …
# Test: BLI cross-block; first Ab (competitor): IgG1-CD134-49B4-RRE
# Procedure: as §3, §1, §2
row,association response,Binder
1,0.2 nm,B1
2,0 nm,B2
3,0.25 nm,B3
4,0.1 nm,B4

# Biological target: T1, recombinant human OX40 fused to a …
# Test: BLI cross-block; first Ab (competitor): IgG1-CD134-INCAGN1949
# Procedure: as §3, §1, §2
row,association response,Binder
1,0.15 nm,B1
2,0.06 nm,B2
3,0.19 nm,B3
4,0.07 nm,B4

# Biological target: T1, recombinant human OX40 fused to a …
# Test: BLI cross-block; first Ab (competitor): IgG1-CD134-003-HC6LC2-RR
# Procedure: as §1, §2
row,association response,Binder
1,-0.03 nm,B1
2,-0.07 nm,B2
3,0 nm,B3
4,0.03 nm,B4

# Biological target: T2, human OX40 expressed on cells
# Test: flow cytometry, activated human CD4+ T cells, without sOX40L, n=3
row,EC50,Binder
1,0.019 µg/mL and 0.13 nM,B3

# Biological target: T3, His-tagged human recombinant FcγRIIa …
# Test: SPR, His-tagged FcγR captured on anti-His chip, antibody injected
# Procedure: Biacore Series S Sensor Chips CM5 (Cytiva, cat. no. 29104988) were covalently coated with anti-His antibody using amine-coupling and His capture kits (Cytiva, cat. no. BR100050 and cat. no. 29234602) according to the manufacturer's instructions. […] After three start-up cycles of HBS-EP+ buffer, antibody samples were injected for 12 cycles per sample to generate binding curves using antibody concentration ranges of 0 to 3,000 nM for FcγRIa and 0 to 10,000 nM for the other FcγRs.
# Dissociation from the anti-His-coated surface was performed by regeneration of the surface using 10 mM Glycine-HCl pH 1.5 (Cytiva, cat. no. BR100354).
row,binding result,Binder
1,"no binding (tested: 10,000 nM)",B3

# Biological target: T4, C1q (from normal human serum) (human, UniProt P02745 23-245; P02746 28-253; P02747 29-245)
# T4 construct: also called complement factor C1q
# Test: flow cytometry, C1q from 20 % normal human serum on antibody-opsonised activated CD4+ T cells, FITC anti-C1q
# Procedure: Next, cells were washed twice with cold FACS buffer, pelleted, and resuspended in 80 μL FACS buffer supplemented with viability marker TO-PRO™-3 Iodide (Invitrogen, cat. no. T3605; diluted 1:10,000). […] Binding curves were analyzed using nonlinear regression analysis (sigmoidal dose-response with variable slope) using GraphPad Prism software. Binding of OX40 antibodies to the activated T cells was assessed after the incubation step with serial dilutions of antibodies. […] Next, cells were washed twice with cold FACS buffer, pelleted, and resuspended in 80 μL FACS buffer supplemented with viability marker TO-PRO-3 Iodide (diluted 1:10,000). Antibody binding was analyzed by flow cytometry on a BD FACSCelesta Cell Analyzer. Binding curves were analyzed using nonlinear regression analysis (sigmoidal dose-response with variable slope) using GraphPad Prism software.
# T4 sequence (P02745 23-245 limits assumed, chain 1 of 3): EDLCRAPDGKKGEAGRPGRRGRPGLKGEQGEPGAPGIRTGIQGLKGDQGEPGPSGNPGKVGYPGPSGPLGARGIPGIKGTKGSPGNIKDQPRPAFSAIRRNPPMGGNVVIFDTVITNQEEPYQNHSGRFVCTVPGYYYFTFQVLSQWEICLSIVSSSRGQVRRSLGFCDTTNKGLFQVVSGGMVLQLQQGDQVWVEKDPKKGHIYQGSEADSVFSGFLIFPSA
# T4 sequence (P02746 28-253 limits assumed, chain 2 of 3): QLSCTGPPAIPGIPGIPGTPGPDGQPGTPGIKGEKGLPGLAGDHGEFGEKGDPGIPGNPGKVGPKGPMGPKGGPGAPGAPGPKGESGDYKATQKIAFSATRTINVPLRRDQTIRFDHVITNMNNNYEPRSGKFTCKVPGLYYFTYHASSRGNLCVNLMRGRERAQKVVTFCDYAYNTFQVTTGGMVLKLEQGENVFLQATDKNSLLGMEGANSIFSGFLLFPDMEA
# T4 sequence (P02747 29-245 limits assumed, chain 3 of 3): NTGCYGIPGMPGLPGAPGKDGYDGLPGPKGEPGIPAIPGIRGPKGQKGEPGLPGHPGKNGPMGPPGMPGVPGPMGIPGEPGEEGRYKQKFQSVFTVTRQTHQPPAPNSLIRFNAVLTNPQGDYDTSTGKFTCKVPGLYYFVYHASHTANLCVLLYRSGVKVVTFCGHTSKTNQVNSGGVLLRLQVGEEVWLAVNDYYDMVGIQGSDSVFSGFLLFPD
row,binding result,Binder
1,no binding (tested: 30 µg/mL antibody),B3
